# Where two headings read alike, the source gives them in different places.
# Legend:
# [1] = target: cynomolgus monkey C-KIT, full length, on CHO-K1 cells (cynomolgus monkey); test: cell-based or functional assay
# [2] = target: human C-KIT, full length, on cells (human) (UniProt P10721); test: cell-based or functional assay
# [3] = target: cynomolgus monkey C-KIT-Fc (cynomolgus monkey); test: HTRF epitope competition in solution; unlabelled h37M IgG1-3M titrated against terbium-labelled h37M IgG1 on cyno C-KIT-Fc
# [4] = target: cynomolgus monkey C-KIT-Fc (cynomolgus monkey); test: direct ELISA at 1 µg/ml
# [5] = target: cynomolgus monkey C-KIT-Fc (cynomolgus monkey); test: HTRF competition vs Tb-h37M IgG1
# [6] = target: cynomolgus monkey C-KIT-Fc (cynomolgus monkey); test: HTRF competition vs Tb-h37M IgG1; remark: listed apart in the source
# [7] = target: cynomolgus monkey C-KIT-Fc (cynomolgus monkey); test: direct titration ELISA on coated C-KIT-Fc, IgG1 format
# [8] = target: cynomolgus monkey C-KIT-Fc (cynomolgus monkey); test: as above; remark: listed apart in the source
# [9] = target: cynomolgus monkey C-KIT, full length, on CHO-K1 cells (cynomolgus monkey); test: flow cytometry, C-KIT-transfected CHO-K1 cells, IgG1 format
Cyno C-KIT CHO FabZAP IC50 (pM) [1] [pM],Human C-KIT CHO FabZAP IC50 (pM) [2] [pM],TF-1 FabZAP IC50 (pM) [2] [pM],TF-1 proliferation IC50 [2] [nM],IC50 (read off the curve) [3] [µg/mL],OD450 nm [4] [OD450 nm],IC50 [5] [µg/mL],IC50 [6] [µg/mL],EC50 (read off the curve) [7] [µg/mL],EC50 (read off the curve) [8] [µg/mL],EC50 (read off the curve) [9] [µg/mL],Binder
7.82,5.7,12.8,0.11,0.02,,,,,,,"h37M-IgG1-3M (antibody, V domains shown) VH: QVQLVQSGAEVKKPGASVKLSCKASGYTFTDYYINWVRQAPGKGLEWIARIYPGSGNTYYNEKFKGRATLTADKSTSTAYMQLSSLRSEDTAVYFCARGVYYFDYWGQGTTVTVSS VL: DIVMTQSPSSLSASVGDRVTITCKASQNVRTNVAWYQQKPGKAPKALIYSASYRYSGVPDRFTGSGSGTDFTLTISSLQPEDFADYFCQQYNSYPRTFGGGTKVEIK"
,,,,,> 2,0.035,0.036,0.1,0.2,0.2,"humanized h37M, human IgG1 (antibody, V domains shown) VH: QVQLVQSGAEVKKPGASVKLSCKASGYTFTDYYINWVRQAPGKGLEWIARIYPGSGNTYYNEKFKGRATLTADKSTSTAYMQLSSLRSEDTAVYFCARGVYYFDYWGQGTTVTVSS VL: DIVMTQSPSSLSASVGDRVTITCKASQNVRTNVAWYQQKPGKAPKALIYSASYRYSGVPDRFTGSGSGTDFTLTISSLQPEDFADYFCQQYNSYPRTFGGGTKVEIK"
